From patent US20150307603A1 (MODIQUEST B V, published 2015)
Non-standard residues stand in square brackets, D forms with d. No end group written: not given here. Cit = NC(=O)NCCC[C@H](N)C(=O)O

Experiments:
msVim XS/XL [1] = target: T1, msVim XS/XL (mouse, also: biotin-labelled); assay: ELISA, Ab 0.4 ug/well
T1 construct: also called mouse vimentin peptide
T1 peptide: YVT[Cit]SSAV[Cit]L[Cit]SSVP
Method: (§1) Biotin and citrulline-containing peptides derived from fibrinogen and vimentin were immobilized on NEUTRAVIDIN®-coated 96-well ELISA plates (0.3 μg/well). CFC-1 and CFC-0 were coated at the same concentration and served as positive and negative controls, respectively, for specific anti-citrulline reactivity and as coating controls. Non-coated wells were used to test for aspecific binding of the antibodies. […] Detection of bound anti-citrulline antibodies was performed by incubating the wells with rabbit anti-human HRP (1:2000) for 1 hour at RT followed by incubation with TMB substrate. The resulting OD (y-axis) is a measure for antibody binding.
(§2) Biotin-labeled and citrulline-containing fibrinogen and vimentin peptides (Table 5) were also tested for reactivity with the therapeutic antibodies. Peptides were coated on 96-well NEUTRAVIDIN®-ELISA plates.

huFibα XH [2] = target: T2, huFibα XH (human, X at position 15 = citrulline; biotin-labelled); assay: ELISA, Ab 0.4 ug/well
T2 peptide: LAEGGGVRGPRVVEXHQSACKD
Method: as §1, §2

[3] = target: T3, peptide no. 5 (human histone 2A) (human, also: biotin-labelled); assay: ELISA, Ab 0.08 ug/well
T3 construct: also called peptide 5
T3 peptide: VGRVH[Cit]LLRKGN
Method: as §1, with “histone 2A” for “fibrinogen and vimentin”

[4] = target: T4, peptide no. 9 (human histone 2A) (human, also: biotin-labelled); assay: ELISA, Ab 0.08 ug/well
T4 construct: also called peptide 9
T4 peptide: DNKKT[Cit]IIPRHL
Method: as §1, with “histone 2A” for “fibrinogen and vimentin”

[5] = target: T5, peptide no. 8 (human histone 2A) (human, also: biotin-labelled); assay: ELISA, Ab 0.08 ug/well
T5 construct: also called peptide 8
T5 peptide: AGNAA[Cit]DNKKTR
Method: as §1, with “histone 2A” for “fibrinogen and vimentin”

CFC-1 [6] = target: T6, CFC-1; assay: ELISA, Ab 0.08 ug/well
T6 construct: Positive control for anti-citrulline reactivity; also called cfc1 XG; Cfc1-peptide
Method: as §1, with “histone 2A” for “fibrinogen and vimentin”

[7] = target: T7, peptide no. 4 (human histone 2A) (human, also: biotin-labelled); assay: ELISA, Ab 0.08 ug/well
T7 construct: also called peptide 4
T7 peptide: QFPVG[Cit]VHRLLR
Method: as §1, with “histone 2A” for “fibrinogen and vimentin”

[8] = target: T8, peptide no. 1 (human histone 2A) (human, also: biotin-labelled); assay: ELISA, Ab 0.08 ug/well
T8 construct: also called peptide 1; AAASGXGKQGGK
T8 peptide: AAASG[Cit]GKQGGK
Method: as §1, with “histone 2A” for “fibrinogen and vimentin”

[9] = target: T9, peptide no. 11 (human histone 2A) (human, also: biotin-labelled); assay: ELISA, Ab 0.08 ug/well
T9 construct: also called peptide 11
T9 peptide: LQLAI[Cit]NDEELN
Method: as §1, with “histone 2A” for “fibrinogen and vimentin”

[10] = target: T10, peptide no. 12 (human histone 2A) (human, also: biotin-labelled); assay: ELISA, Ab 0.08 ug/well
T10 construct: also called peptide 12
T10 peptide: NKLLG[Cit]VTIAQG
Method: as §1, with “histone 2A” for “fibrinogen and vimentin”

[11] = target: T11, peptide no. 6 (human histone 2A) (human, also: biotin-labelled); assay: ELISA, Ab 0.08 ug/well
T11 construct: also called peptide 6
T11 peptide: VHRLL[Cit]KGNYSE
Method: as §1, with “histone 2A” for “fibrinogen and vimentin”

[12] = target: T12, peptide no. 3 (human histone 2A) (human, also: biotin-labelled); assay: ELISA, Ab 0.08 ug/well
T12 construct: also called peptide 3
T12 peptide: KSRSS[Cit]AGLQFP
Method: as §1, with “histone 2A” for “fibrinogen and vimentin”

[13] = target: T13, peptide no. 2 (human histone 2A) (human, also: biotin-labelled); assay: ELISA, Ab 0.08 ug/well
T13 construct: also called peptide 2
T13 peptide: AKAKS[Cit]SSRAGL
Method: as §1, with “histone 2A” for “fibrinogen and vimentin”

msVim XS/XL [14] = target: T1, msVim XS/XL; assay: ELISA, Ab 2 ug/well
Method: as §1, §2

huFibα XG [15] = target: T14, huFibα XG (human, X at position 8 = citrulline; biotin-labelled); assay: ELISA, Ab 2 ug/well
T14 peptide: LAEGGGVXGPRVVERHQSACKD
Method: as §1, §2

huFibα XH [16] = target: T2, huFibα XH; assay: ELISA, Ab 2 ug/well
Method: as §1, §2

CFC-1 [17] = target: T6, CFC-1; assay: ELISA, Ab 2 ug/well
Method: as §1, §2

msFibα XH [18] = target: T15, msFibα XH (mouse, X at position 15 = citrulline; biotin-labelled); assay: ELISA, Ab 2 ug/well
T15 peptide: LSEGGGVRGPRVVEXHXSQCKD
Method: as §1, §2

msFibα XG [19] = target: T16, msFibα XG (mouse, X at position 8 = citrulline; biotin-labelled); assay: ELISA, Ab 2 ug/well
T16 peptide: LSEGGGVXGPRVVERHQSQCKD
Method: as §1, §2

msFibβ XG [20] = target: T17, msFibβ XG (mouse, also: biotin-labelled); assay: ELISA, Ab 2 ug/well
T17 construct: also called mouse fibrinogen β peptide
T17 peptide: EPTDSLDA[Cit]GHRPVDRR
Method: as §1, §2

[21] = target: T5, peptide no. 8 (human histone 2A); assay: ELISA, Ab 10 ug/well
Method: as §1, with “histone 2A” for “fibrinogen and vimentin”

[22] = target: T8, peptide no. 1 (human histone 2A); assay: ELISA, Ab 10 ug/well
Method: as §1, with “histone 2A” for “fibrinogen and vimentin”

msVim XS/XL [23] = target: T1, msVim XS/XL; assay: ELISA, Ab 0.08 ug/well
Method: as §1, §2

huFibα XG [24] = target: T14, huFibα XG; assay: ELISA, Ab 0.08 ug/well
Method: as §1, §2

huFibα XH [25] = target: T2, huFibα XH; assay: ELISA, Ab 0.08 ug/well
Method: as §1, §2

CFC-1 [26] = target: T6, CFC-1; assay: ELISA, Ab 0.08 ug/well; remark: listed apart in the source
Method: as §1, §2

msFibα XH [27] = target: T15, msFibα XH; assay: ELISA, Ab 0.08 ug/well
Method: as §1, §2

msFibα XG [28] = target: T16, msFibα XG; assay: ELISA, Ab 0.08 ug/well
Method: as §1, §2

msFibβ XG [29] = target: T17, msFibβ XG; assay: ELISA, Ab 0.08 ug/well
Method: as §1, §2

B1: RhmAb2.102 (antibody, human IgG1, lambda)
heavy: not shown
light: QSVLTQPPSMSAAPGQKVTISCSGSSSNIGNNYVSWYQQVPGTAPKLLIYDDNKRPSGIPGRFSGSKSATSATLGITGLQAGDEADYYCGSWDDNLSVVLFGGGTKLTVLGQPKAAPSVTLFPPSSEELQANKATLVCLISDFYPGAVTVAWKADSSPVKAGVETTTPSKQSNNKYAASSYLSLTPEQWKSHRSYSCQVTHEGSTVEKTVAPTECS
notes: Human IgG1 lambda; also called Rhm2.102
**Q.** B1 was tested. Which OD (msVim XS/XL [1]) did it give?
**A.** 1.45 OD450

**Q.** What about the OD (huFibα XH [2]) of the same binder?
**A.** 0.09 OD450

**Q.** And the OD [3]?
**A.** 0.066 OD450

**Q.** What about the OD [4] of the same binder?
**A.** 0.06 OD450

**Q.** And the OD [5]?
**A.** 0.06 OD450

**Q.** What about the OD (CFC-1 [6]) of the same binder?
**A.** 2.66 OD450

**Q.** What about the OD [7] of the same binder?
**A.** 0.192 OD450

**Q.** What about the OD [8] of the same binder?
**A.** 2.04 OD450

**Q.** And the OD [9]?
**A.** 0.064 OD450

**Q.** What about the OD [10] of the same binder?
**A.** 0.06 OD450

**Q.** And the OD [11]?
**A.** 0.123 OD450

**Q.** What about the OD [12] of the same binder?
**A.** 0.091 OD450

**Q.** What about the OD [13] of the same binder?
**A.** 0.086 OD450

**Q.** And the OD (msVim XS/XL [14])?
**A.** 2.77 OD450

**Q.** What about the OD (huFibα XG [15]) of the same binder?
**A.** 1.51 OD450

**Q.** And the OD (huFibα XH [16])?
**A.** 0.116 OD450

**Q.** And the OD (CFC-1 [17])?
**A.** 3.97 OD450

**Q.** What about the OD (msFibα XH [18]) of the same binder?
**A.** 0.091 OD450

**Q.** And the OD (msFibα XG [19])?
**A.** 1.9 OD450

**Q.** And the OD (msFibβ XG [20])?
**A.** 3.15 OD450

**Q.** And the OD [21]?
**A.** 0.082 OD450

**Q.** And the OD [22]?
**A.** 3.11 OD450

**Q.** And the OD (msVim XS/XL [23])?
**A.** 0.515 OD450

**Q.** And the OD (huFibα XG [24])?
**A.** 0.186 OD450

**Q.** What about the OD (huFibα XH [25]) of the same binder?
**A.** 0.08 OD450

**Q.** And the OD (CFC-1 [26])?
**A.** 3.03 OD450

**Q.** And the OD (msFibα XH [27])?
**A.** 0.076 OD450

**Q.** And the OD (msFibα XG [28])?
**A.** 0.237 OD450

**Q.** What about the OD (msFibβ XG [29]) of the same binder?
**A.** 0.515 OD450
